Assay results as given in patent US20200270352A1.

Experiments:
[1] = molecular target: soluble recombinant human IGF-1R hetero-tetramer (2 α chains and the extracellular domains of 2 β chains) with C-terminal 10-His tag (R&D Systems 305-GR-50) (human) (UniProt P08069); experiment: SPR, Ln(2)/koff
[2] = molecular target: soluble recombinant human IGF-1R hetero-tetramer (2 α chains and the extracellular domains of 2 β chains) with C-terminal 10-His tag (R&D Systems 305-GR-50) (human) (UniProt P08069); experiment: SPR Biacore X100, His-captured h-IGF-1R (about 600 RU), mean of 4 experiments

half-life of the complex [1]: 2 to 3 h
Kd [2]: 0.06 nM
B1: humanized antibody hz208F2 VH3/VL3 (hz208F2 H026/L024) (antibody, human IgG1, kappa, V domains shown)
VH: QVQLVQSGAEVKKPGASVKMSCKASGYTFTSYYIYWVKQAPGQGLEWLGWIWPGDGSTKYNEKFQGRVTLTADKSSNTAYMFLSSLRSEDTAVYFCASPMITPNYAMDYWGQGTLVTVSS
VL: DIQMTQSPSSLSASVGDRVTISCRASQDISKYLNWYQQKPGKAPKLLIYYTSRLHSGVPSRFSGRGSGTDYSLTISNLQPEDFATYFCQQGSTLPYTFGGGTKVEIKR
